B1: wild-type PAP257–273 [human] / itself (parent)
chain: RLQGGVLVNEILNHMKR

Variants of B1 are the subject of the experiment. Nature of the experiment: ThT assay (amyloid fibril formation, self-assembly). The following applies: with itself; peptide 3 mg/ml, agitated at 1400 rpm at 37 °C for 48 h; parent: 5.5e+03; read off a plot.
Regarding RAQGGVLVNEILNHMKR, the response was determined as 7800. In the case of RLQGGVLVNEILNHAKR, the response came out at 1400. As to RLQGGVLANEILNHMKR, the response came out at 200. Regarding RLQGGVLVNEIANHMKR, the response was 11000. For RLAGGVLVNEILNHMKR, the response amounted to 5100. Turning to RLQGGVLVNEILNHMKA, the response came out at 8300.

For the origin of these results see publication PMC6048764, “Myricetin antagonizes semen-derived enhancer of viral infection (SEVI) formation and influences its infection-enhancing activity” (Retrovirology, 2018).
